{
  "source": "paper PMC8326573",
  "biological_target": "C. trachomatis PmpD fragment D^269–918, His-tagged (C. trachomatis serovar E) (UniProt O84818)",
  "assay": "native gel or EMSA; Blue Native-PAGE (Native PAGE Novex 3–12% Bis-Tris), 1 μg of each renatured His-tagged Pmp fragment alone; Coomassie staining and anti-His immunoblot",
  "data": [
    {"substance": "C. trachomatis PmpD fragment D^269–918, His-tagged (from UniProt O84818 269-918) (domain or fragment)", "values": [
      {"measurement": "stoichiometry N", "value": 2}
    ]}
  ]
}
